“And” between values parts separate entries of the source, which are not always exact repeats. Identical values can stand only once.
B1: SHIZ145-N1C0: β-galactoside-α2,6-sialyltransferase from strain JT-SHIZ-145 lacking the amino acids of the signal peptide region, expressed in E. coli (protein)
chain: MCNDNQNTVDVVVSTVNDNVIENNTYQVKPIDTPTTFDSYSWIQTCGTPILKDDEKYSLSFDFVAPELDQDEKFCFEFTGDVDGKRYVTQTNLTVVAPTLEVYVDHASLPSLQQLMKIIQQKNEYSQNERFISWGRIRLTEDNAEKLNAHIYPLAGNNTSQELVDAVIDYADSKNRLNLELNTNTGHSFRNIAPILRATSSKNNILISNINLYDDGSAEYVSLYNWKDTDNKSQKLSDSFLVLKDYLNGISSEKPNGIYSIYNWHQLYHSSYYFLRKDYLTVETKLHDLREYLGGSLKQMSWDTFSQLSKGDKELFLNIVGFDQEKLQQEYQQSELPNFVFTGTTTWAGGETKEYYAQQQVNVVNNAINETSPYYLGREHDLFFKGHPRGGIINDIILGSFNNMIDIPAKVSFEVLMMTGMLPDTVGGIASSLYFSIPAEKVSFIVFTSSDTITDREDALKSPLVQVMMTLGIVKEKDVLFWC

Legend:
Assay type in all cases: biochemical, Photobacterium leiognathi
[1] = test system: recombinant β-galactoside-α2,6-sialyltransferase N1C0; experiment: Transfer of sialic acid to glycoproteins; details: enzyme +; 30° C. for 0.5 hours
Description: As a glycosyl acceptor substrate, asialofetuin and asialomucin were each used. Asialofetuin or asialomucin (2 mg) was dissolved in 1 ml of 20 mM Bis-Tris buffer (pH 7.0) and used as a glycosyl acceptor substrate solution. As a glycosyl donor substrate, CMP-NeuAc was used. The glycosyl acceptor substrate solution (40 μl), the glycosyl donor substrate (5 μl) and the enzyme solution (5 μl) were mixed and incubated at 30° C. for 0.5 hours to cause sialic acid transfer reaction. After completion of the reaction, the reaction solution was gel-filtered by being applied to a Sephadex G-50 Superfine (0.8×18.0 cm) equilibrated with 0.1 M sodium chloride. A glycoprotein-containing eluate fraction (2-4 ml fraction) from gel filtration was collected and measured for its radioactivity using a liquid scintillation counter to quantify sialic acid transferred to the glycosyl acceptor substrate.

[2] = test system: recombinant β-galactoside-α2,6-sialyltransferase N1C0; experiment: Optimum temperature for enzyme activity; details: phosphate buffer (pH 8.0), 10° C. up to 50° C.
Description: The enzyme activity was measured at an interval of 5° C. starting from 10° C. up to 50° C. using phosphate buffer (pH 8.0).
As a result, as shown in FIG. 2-2, the enzyme activity was maximum at 30° C. It should be noted that enzyme activity at each temperature was evaluated as relative activity, assuming that the enzyme activity at 30° C. was set to 100.

[3] = test system: β-galactoside-α2,6-sialyltransferase; experiment: Binding mode of sialic acid: reaction with PA-lactose and CMP-NeuAc, HPLC analysis; details: pyridylaminated lactose as glycosyl acceptor
Description: To determine the binding mode of sialic acid, a reaction using PA-lactose as a substrate was then performed. The enzymatic reaction was accomplished by using the resulting crude enzyme solution and a pyridylaminated sugar chain as a glycosyl acceptor substrate. The pyridylaminated sugar chain used for analysis was pyridylaminated lactose (Galβ1-4Glc-PA, Takara Bio Inc., Japan). To 5 μl of the crude enzyme solution, 1.5 μl of 5 mM CMP-NeuAc and 1.5 μl of 10 pmol/μl glycosyl acceptor substrate were added and reacted at 25° C. for 18 hours. After completion of the reaction, the reaction solution was treated at 100° C. for 2 minutes to inactivate the enzyme, followed by HPLC to analyze the reaction product. The HPLC system used was Shimadzu LC10A (Shimadzu Corporation, Japan) and the analytical column used was Takara PALPAK Type R (Takara Bio Inc., Japan). […] The analysis was performed under the following conditions: flow rate: 1 ml/min, column temperature: 40° C., detection: fluorescence (Ex: 320 nm, Em: 400 nm).
Further analysis was performed to examine whether sialyltransferase expressed by E. coli cells transformed in (5) above with SHIZ145-N1C0/pTrc99A had β-galactoside-α2,6-sialyltransferase activity. […] As a result, PA-6′-sialyllactose (Neu5Acα2-6Galβ1-4Glc-PA) was detected, as in the case of Example 1.

[4] = test system: β-galactoside-α2,6-sialyltransferase from the strain JT-SHIZ-145; experiment: Sialyltransferase activity measurement of crude enzyme solution from E. coli transformed with SHIZ145-N1C0/pTrc99A (14C CMP-NeuAc donor, lactose acceptor); details: insert +, 120 mM lactose, 0.5 M NaCl, 30° C. for 30 minutes
Description: Among the two expression vectors obtained above, SHIZ145-N1C0/pTrc99A was used to perform an induction experiment of protein expression. A single colony of E. coli TB1 having the expression vector pTrc99A carrying the SHIZ145-N1C0 clone (SEQ ID NO: 3) was inoculated into LB medium (6 ml) containing an antibiotic, ampicillin (final concentration […]), and pre-cultured at 30° C. to about A600=0.5, followed by addition of IPTG (isopropyl-β-D(−)-thiogalactopyranoside, Wako Pure Chemical Industries, Ltd., Japan) at a final concentration of 1 mM to initiate expression induction. After culturing overnight with shaking at 30° C., the cells in 2 ml culture solution were collected by centrifugation. These cells were suspended in 400 μl of 20 mM Bis-Tris buffer (pH 6.0) containing 0.336% Triton X-100, and ultrasonically homogenized under ice cooling. The resulting homogenate was defined as a crude enzyme solution and provided for sialyltransferase activity measurement. Measurement was accomplished as described in J. Biochem., 120, 104-110 (1996) (hereby incorporated by reference in its entirety). […] Radioactivity was measured for the reaction product, i.e., sialyllactose contained in the eluate from the column to calculate the enzyme activity.

[5] = test system: recombinant β-galactoside-α2,6-sialyltransferase N1C0; experiment: Optimum pH for enzyme activity; details: phosphate buffer, 30° C.
Description: Acetate buffer (pH 4-5), cacodylate buffer (pH 5-6), Bis-Tris buffer (pH 6-7), phosphate buffer (pH 6-9.5), Tris-HCl buffer (pH 7-9.5), TAPS buffer (pH 8-9), CHES buffer (pH 9-10) and CAPS buffer (pH 10-11) were prepared and used for enzyme activity measurement at 30° C. at various pH values.
It should be noted that enzyme activity at each pH was evaluated as relative activity, assuming that the enzyme activity at pH 8.0 in phosphate buffer was set to 1.

Molecule	NeuAc transferred (cpm) [1]	temperature at which the enzyme activity was maximum [2]	PA-6′-sialyllactose (Neu5Acα2-6Galβ1-4Glc-PA) product [3]	NeuAc transferred (cpm) [4]	pH at which the enzyme activity reached maximum [5]
Asialofetuin: glycoprotein used as glycosyl acceptor substrate	2140 cpm and 2038 cpm				
B1		30 °C	detected	8326 cpm	8.0
